From US20260022343A1 (AFFYXELL THERAPEUTICS, published 2026)
Several values for one entry are separate records, joined by “and”; a condition that tells them apart may be missing. Equal entries are not always repeated.

T1: human TNFR2 (human, UniProt P20333 23-257, limits assumed)
T1 sequence (looked up): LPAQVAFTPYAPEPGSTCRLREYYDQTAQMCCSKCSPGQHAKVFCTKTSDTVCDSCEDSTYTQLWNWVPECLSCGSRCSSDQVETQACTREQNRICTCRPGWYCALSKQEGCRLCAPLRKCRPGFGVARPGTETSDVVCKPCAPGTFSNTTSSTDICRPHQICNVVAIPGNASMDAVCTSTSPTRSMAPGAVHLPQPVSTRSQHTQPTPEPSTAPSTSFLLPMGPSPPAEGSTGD

T2: recombinant human CD40L (R&D Systems, 6420-CL-025/CF) (human, UniProt P29965 108-261, limits assumed)
T2 construct: Bought protein coated on the ELISA plate
T2 sequence (looked up): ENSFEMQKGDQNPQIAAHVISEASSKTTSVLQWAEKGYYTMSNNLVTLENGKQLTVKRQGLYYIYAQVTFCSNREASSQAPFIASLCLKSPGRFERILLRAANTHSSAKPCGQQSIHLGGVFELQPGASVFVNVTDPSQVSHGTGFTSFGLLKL

T3: human Mega CD40L recombinant protein (Enzo Lifesciences) (human, UniProt P29965 116-261)
T3 sequence (looked up): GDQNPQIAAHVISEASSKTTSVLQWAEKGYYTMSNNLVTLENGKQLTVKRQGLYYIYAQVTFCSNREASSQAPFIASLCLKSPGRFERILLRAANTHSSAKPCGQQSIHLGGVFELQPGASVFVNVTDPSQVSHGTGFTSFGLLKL


Assays:
human TNFR2 = target: T1, human TNFR2; test: selection of TNFR2-binding stefin A variants; method not described
[1] = target: T2, recombinant human CD40L (R&D Systems, …); test: binding ELISA (bELISA): plate coated with recombinant human CD40L, 1/3 serial dilutions of concentrated culture fluid, TMB read-out; second-named of the two gene-introduced cell lines (promoter not stated)
Description: (§1) Each cell line was inoculated into a T175 flask at a cell density of 4.0×10³ cells/cm² using a culture medium. After culture at 37° C. and 5% CO₂ for 18 to 24 hours, the culture medium was thoroughly replaced with a fresh culture medium every 2 days, followed by culture. After culture for 3 days, the cells were harvested, and 7.0×10⁶ cells were inoculated into a T175 flask, followed by culture at 37° C. and 5% CO₂ for 18 to 24 hours. The culture medium was thoroughly removed, and the remaining medium was completely removed through washing with 10 mL of MEM alpha. 30 mL of an MEM alpha medium was added to a T175 flask, followed by culture for 48 hours. After 48 hours, all of the cell culture fluid was harvested and then centrifuged to remove residual cells and impurities. The cell culture fluid was transferred to a Vivaspin 20 and centrifuged, the culture fluid was concentrated, and the stefin A protein variant was quantified through sandwich ELISA (LSBio, LS-F4620). […] The unbound stefin A protein variant was removed through washing, after which the extent of binding between the stefin A protein variant and CD40L was detected based on a difference in absorbance resulting from reaction with a TMB substrate.

[2] = target: T3, human Mega CD40L recombinant protein …; test: cell-based or functional assay
[3] = target: T2, recombinant human CD40L (R&D Systems, …); test: binding ELISA (bELISA): plate coated with recombinant human CD40L, 1/3 serial dilutions of concentrated culture fluid, TMB read-out; first-named of the two gene-introduced cell lines (promoter not stated)
Description: as §1

| Binder | binding result (human TNFR2) | other results |
| --- | --- | --- |
| TNFR2-binding stefin A variant CLONE 009 (designed binder, also called clone 9) MIPGGLSEAKPATPEIQEIVDKVKPQLEEKTGETYGKLEAVQYKTQVVRLFHIWRWWGTNYYIKVRAGDNKYMHLKVFKSLIHIYTDSIQEDLVLTGYQVDKNKDDELTGFAAAEQKLISEEDLAAHHHHHH | binds | – |
| TNFR2-binding stefin A variant CLONE 026 (designed binder, also called clone 26) MIPRGLSEAKPATPEIQEIVDKVKPQLEEKTGETYGKLEAVQYKTQVLALEIPSAIIYSTNYYIKVRAGDNKYMHLKVFNGPYFWGDQEHWADRVLTGYQVDKNKDDELTGFAAAEQKLISEEDLAAHHHHHH | binds | – |
| TNFR2-binding stefin A variant CLONE 001 (designed binder, also called clone 1) MIPGGLSEAKPATPEIQEIVDKVKPQLEEKTGETYGKLEAVQYKTQVVGQDQWGNYAGTNYYIKVRAGDNKYMHLKVFKSLPDIPHNHWHEDLVLTGYQVDKNKDDELTGFAAAEQKLISEEDLAAHHHHHH | binds | – |
| anti-CD40L stefin A protein variant XT75 (SEQ ID NO: 105), secreted by gene-introduced MSC (eMSC) (designed binder, By their DNA these vectors appear to encode a further C-terminal Myc/His tag and a T2A remnant; also called AFX01-230 XT75(C); eMSC (XT75, w/EF1A)) IPGGLSEAKPATPEIQEIVDKVKPQLEEKTGETYGKLEAVQYKTQVVHYYVHYNDQGTNYYIKVRAGDNKYMHLKVFKSLWGENLFAKWEDLVLTGYQVDKNKDDELTGFAEAAAKEAAAKEAAAKEAAAKEAAAKEAAAKMIPGGLSEAKPATPEIQEIVDKVKPQLEEKTGETYGKLEAVQYKTQVVHYYVHYNDQGTNYYIKVRAGDNKYMHLKVFKSLWGENLFAKWEDLVLTGYQVDKNKDDELTGFAEAAAKEAAAKEAAAKEAAAKEAAAKEAAAKMIPGGLSEAKPATPEIQEIVDKVKPQLEEKTGETYGKLEAVQYKTQVVHYYVHYNDQGTNYYIKVRAGDNKYMHLKVFKSLWGENLFAKWEDLVLTGYQVDKNKDDELTGFAEAAAKEAAAKEAAAKEAAAKEAAAKEAAAKMIPRGLSEAKPATPEIQEIVDKVKPQLEEKTGETYGKLEAVQYKTQVLANFFQRRWPGSTNYYIKVRAGDNKYMHLKVFNGPWKFRNTDRGADRVLTGYQVDKNKDDELTGF | – | EC50 [1]: 0.0053 nM; IC50 for hMega CD40L, HEK-Blue CD40L reporter cell assay (absorbance of HEK-Blue solution) [2]: 0.303 nM and 0.4 nM; EC50 [3]: 0.0039 nM |

Further lines, with some results ahead:

| binding result (human TNFR2) | Binder | other results |
| --- | --- | --- |
| binds | TNFR2-binding stefin A variant CLONE 044 (designed binder, also called clone 44) MIPGGLSEAKPATPEIQEIVDKVKPQLEEKTGETYGKLEAVQYKTQVVLFPEAVYWVGTNYYIKVRAGDNKYMHLKVFKSLIWNDNAAQHEDLVLTGYQVDKNKDDELTGFAAAEQKLISEEDLAAHHHHHH | – |
| binds | TNFR2-binding stefin A variant CLONE 007 (designed binder, also called clone 7) MIPGGLSEAKPATPEIQEIVDKVKPQLEEKTGETYGKLEAVQYKTQVVGLDIWGNNAGTNYYIKVRAGDNKYMHLKVFKSLADTARTEEAEDLVLTGYQVDKNKDDELTGFAAAEQKLISEEDLAAHHHHHH | – |
| binds | TNFR2-binding stefin A variant CLONE 100 (designed binder) MIPRGLSEAKPATPEIQEIVDKVKPQLEEKTGETYGKLEAVQYKTQVLAQSWDKHYQLRESTNYYIKVRAGDNKYMHLKVFNGPEVPHHAHGVADRVLTGYQVDKNKDDELTGFAAAEQKLISEEDLAAHHHHHH | – |
| binds | TNFR2-binding stefin A variant CLONE 012 (designed binder, also called clone 12) MIPGGLSEAKPATPEIQEIVDKVKPQLEEKTGETYGKLEAVQYKTQVVYWGVQGALDGTNYYIKVRAGDNKYMHLKVFKSLNWNHEFDLVEDLVLTGYQVDKNKDDELTGFAAAEQKLISEEDLAAHHHHHH | – |
